This experiment has as its target T1, Flag-tagged FANCJ wild type (human, UniProt Q9BX63 1-1249).
T1 construct: FANCJ (BRIP1, BACH1) DNA helicase, human, open reading frame; purified as full-length protein; Plasmid from Hisao Masai (Uno et al, 2012); also called FANCJ WT; Flag-FANCJ WT; source: HEK 293T, transiently transfected (pCSII-EF-MCS): in whole-cell extract or nuclear fraction; also purified (anti-Flag M2 agarose, 3x Flag-peptide elution)
T1 sequence (looked up): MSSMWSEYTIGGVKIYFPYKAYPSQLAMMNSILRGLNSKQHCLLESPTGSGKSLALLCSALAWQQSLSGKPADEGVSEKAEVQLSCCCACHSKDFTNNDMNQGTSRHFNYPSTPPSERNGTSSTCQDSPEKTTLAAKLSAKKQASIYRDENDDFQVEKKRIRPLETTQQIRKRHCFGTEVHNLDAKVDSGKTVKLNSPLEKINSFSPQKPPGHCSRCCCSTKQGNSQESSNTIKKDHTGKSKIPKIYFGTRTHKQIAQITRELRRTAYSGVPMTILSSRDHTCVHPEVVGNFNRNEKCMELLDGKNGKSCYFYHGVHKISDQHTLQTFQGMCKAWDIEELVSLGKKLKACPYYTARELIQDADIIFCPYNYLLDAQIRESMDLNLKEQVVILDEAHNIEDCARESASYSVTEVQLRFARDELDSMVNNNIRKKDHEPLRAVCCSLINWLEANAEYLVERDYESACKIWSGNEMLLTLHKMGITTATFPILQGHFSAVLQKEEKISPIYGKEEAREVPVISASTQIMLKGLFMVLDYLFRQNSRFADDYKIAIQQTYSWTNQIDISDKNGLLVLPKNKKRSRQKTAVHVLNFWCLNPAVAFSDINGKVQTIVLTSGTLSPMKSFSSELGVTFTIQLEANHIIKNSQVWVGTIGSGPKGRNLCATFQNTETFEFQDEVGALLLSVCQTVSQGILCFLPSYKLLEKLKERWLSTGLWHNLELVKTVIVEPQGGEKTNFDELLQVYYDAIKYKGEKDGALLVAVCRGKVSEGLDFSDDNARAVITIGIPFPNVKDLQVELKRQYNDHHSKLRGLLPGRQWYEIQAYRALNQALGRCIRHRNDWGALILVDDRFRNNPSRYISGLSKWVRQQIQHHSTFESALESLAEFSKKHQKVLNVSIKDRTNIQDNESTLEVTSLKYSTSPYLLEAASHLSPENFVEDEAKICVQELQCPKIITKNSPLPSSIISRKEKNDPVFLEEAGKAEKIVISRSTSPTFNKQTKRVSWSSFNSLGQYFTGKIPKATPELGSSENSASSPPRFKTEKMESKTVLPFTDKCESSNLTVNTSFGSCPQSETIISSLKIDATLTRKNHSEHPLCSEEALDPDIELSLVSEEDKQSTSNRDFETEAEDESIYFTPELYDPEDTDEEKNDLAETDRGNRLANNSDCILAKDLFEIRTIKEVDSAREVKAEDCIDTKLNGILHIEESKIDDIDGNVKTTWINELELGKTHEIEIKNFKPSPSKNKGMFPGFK
Description: pull-down; GST-SepB α-helix bundle (0.5 µg) on Glutathione Sepharose 4B beads, purified Flag-FANCJ (0.5 µg) added; 25 mM Tris-HCl pH 7.5, 150 mM NaCl, 0.1% Triton X-100, 4 °C; washes with 300 mM NaCl, 1% Triton X-100; Western blot. To be noted: both partners purified. For orientation: In western blotting, separated proteins are transferred to a membrane and probed.

B1: GST-SepB α-helix bundle WT (domain or fragment, human, UniProt O75717 718-824, looked up)
chain: IATEKGQMEEQFWRSVIFHNHLDYLAKNGYEYEESTKNQATKEQQELLMKMLALSCKLEREFRCVELADLMTQNAVNLAIKYASRSRKLILAQKLSELAVEKAAELT
notes: AND-1 (WDHD1), human, α-helix bundle of the SepB domain, amino-acid residues 718-824; Cloned into pGEX-2T; also called GST-SepB α-helix bundle chimeric protein; source: E. coli Rosetta pLysS (DE3), purified (Glutathione Sepharose 4B)
Regarding B1, the binding result is recorded as “binds”.
